Laboratory results as given in article PMC4224745, “Modulation, Bioinformatic Screening, and Assessment of Small Molecular Peptides Targeting the Vascular Endothelial Growth Factor Receptor” (Cell Biochemistry and Biophysics, 2014).
Values belong to the molecule of their own block, whether it stands above or below them. No end group written: not given here.

Key:
[1] = system: VEGFR; test: In vitro receptor competition binding assay with 125I-VEGF165 on A549 cells; design: species or system human; conditions: for IC50: A549 cells, peptide 0–6,500 nmol/L, 30 min at 4 °C, then 125I-VEGF165 0.37 μg/L for 2 h at 4 °C, γ-counter, duplicate wells, read-out: IC50, competitive VEGFR binding with 125I-VEGF; for Fold increase in affinity for VEGFR relative to VEGF125–136: from the IC50 values of the 125I-VEGF competition on A549 cells
Description: A549 cells were cultured in 24-well culture plates at 3 × 10^4 cells/well in duplicate for each treatment. Cultures were maintained at 37 °C in a 5 % CO2 incubator. After 24 h, the culture supernatant was discarded, and cells were washed in PBS, followed by the addition of serum-free culture medium (Hyclone, Logan, UT) before performing an in vitro competitive-binding assay. To each well, VEGF125–136 or optimized peptides were added at the following concentrations: 0, 1.3, 6.5, 32.5, 65, 650, and 6,500 nmol/L. After a 30-min incubation period at 4 °C, 1.85 kBq ^125I-VEGF165 (PerkinElmer,Boston, MA) at a final concentration of 0.37 μg/L was added to each well, and the plates were further incubated for another 2 h at 4 °C. The culture supernatant was discarded, and the cells were washed twice with pre-cooled (4 °C) PBS containing 0.1 % BSA to remove unbound ^125I-VEGF165. The cells were then trypsin digested and quickly filtered through glass fiber filter paper using a multi-channel microfluidic device. Radioactive counts (cpm) on the filter paper were determined using a γ-counter (Chongqing Optical & Electrical Instrument). Peptide competition binding curves were plotted, and IC50 values for each peptide were calculated using SPSS13.0 statistics software.

[2] = system: A549 cells; test: Fluorescence microscopy of rhodamine-conjugated peptides binding to A549 cells; type: cell-based, human; conditions: rhodamine-conjugated peptides 45 µmol/L, fixed A549 cells, 2 h at 4 °C (method) or 6 h (results)
Description: The highest affinity peptides, NO.15 (QKRKRKKSRKKH) and NO.17 (RKRKRKKSRYIVLS), were conjugated with a fluorochrome, and fluorescence microscopy was used to observe binding to A549 cells as follows. A549 cells were plated on coverslips and grown overnight. The cells were then washed three times with PBS and fixed with 4 % paraformaldehyde for 15 min at room temperature. The cells were incubated at 37 °C for 30 min with 2 % BSA to block nonspecific binding, and subsequently washed three times with PBS. Rhodamine-conjugated peptides (45 µmol/L) were added and incubated with the cells for 2 h at 4 °C. After three washes with PBS, fluorescence microscopy (maximum absorption wavelength of 552 nm) was used to observe cellular staining. Unconjugated rhodamine was used as staining control.

[3] = target: vascular endothelial growth factor receptor (VEGFR) (human (endogenous in A549), UniProt P17948 27-1338); test: radioligand binding; competition on A549 cells in 24-well plates, serum-free medium: peptide at 0-6,500 nmol/L for 30 min at 4 °C, then 1.85 kBq 125I-VEGF165 (0.37 μg/L) for 2 h at 4 °C; washed, trypsinised, filtered, γ-counted; IC50 by SPSS13.0; conditions: one partner purified
vascular endothelial growth factor receptor (VEGFR), sequence (P17948 27-1338): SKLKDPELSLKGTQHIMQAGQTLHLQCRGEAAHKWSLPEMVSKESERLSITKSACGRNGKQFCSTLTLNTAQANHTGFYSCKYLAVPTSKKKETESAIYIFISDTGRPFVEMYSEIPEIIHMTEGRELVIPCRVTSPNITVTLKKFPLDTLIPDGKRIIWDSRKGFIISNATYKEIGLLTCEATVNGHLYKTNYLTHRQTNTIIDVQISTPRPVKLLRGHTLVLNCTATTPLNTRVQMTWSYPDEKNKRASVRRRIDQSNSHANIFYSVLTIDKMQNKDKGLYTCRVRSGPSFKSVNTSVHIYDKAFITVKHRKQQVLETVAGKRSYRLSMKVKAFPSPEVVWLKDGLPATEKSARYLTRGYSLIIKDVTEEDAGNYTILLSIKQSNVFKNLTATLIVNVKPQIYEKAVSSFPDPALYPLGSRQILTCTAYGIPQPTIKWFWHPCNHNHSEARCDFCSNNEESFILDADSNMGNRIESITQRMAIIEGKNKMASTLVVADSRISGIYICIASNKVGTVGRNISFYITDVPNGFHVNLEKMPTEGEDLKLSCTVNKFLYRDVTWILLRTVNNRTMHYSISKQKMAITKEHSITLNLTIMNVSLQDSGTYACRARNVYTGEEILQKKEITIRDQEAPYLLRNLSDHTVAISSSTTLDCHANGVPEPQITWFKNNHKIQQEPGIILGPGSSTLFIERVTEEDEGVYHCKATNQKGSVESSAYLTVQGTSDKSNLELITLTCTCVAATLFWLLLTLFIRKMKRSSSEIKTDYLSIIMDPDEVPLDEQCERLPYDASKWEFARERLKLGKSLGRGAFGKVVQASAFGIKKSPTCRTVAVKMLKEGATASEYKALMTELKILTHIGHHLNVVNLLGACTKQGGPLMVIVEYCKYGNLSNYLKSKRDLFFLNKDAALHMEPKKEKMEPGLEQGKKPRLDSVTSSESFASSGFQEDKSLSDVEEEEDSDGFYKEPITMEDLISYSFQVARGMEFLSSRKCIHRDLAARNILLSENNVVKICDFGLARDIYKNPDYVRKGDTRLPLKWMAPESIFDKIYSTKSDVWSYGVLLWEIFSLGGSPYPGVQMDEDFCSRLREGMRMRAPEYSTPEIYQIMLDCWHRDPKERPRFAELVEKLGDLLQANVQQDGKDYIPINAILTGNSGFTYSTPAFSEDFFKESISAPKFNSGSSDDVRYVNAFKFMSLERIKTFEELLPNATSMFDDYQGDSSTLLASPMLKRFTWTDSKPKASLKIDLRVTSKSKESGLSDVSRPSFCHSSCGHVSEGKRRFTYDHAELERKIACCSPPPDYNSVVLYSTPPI

Molecule: QKRKRKKSRKKH [compound 15]
IC50 [1]: 80 ± 7 nM | Fold increase in affinity for VEGFR relative to VEGF125–136 ([1]; listed as QKRKRKKSRKKH): 6 fold and ≈ 6 fold | Binding sites / fluorescent staining on A549 cells [2]: plasma membrane and perinuclear cytoplasm

Molecule: RKRKRKKSRYIVLS [compound 17]
IC50 [1]: 185 ± 14 nM | Fold increase in affinity for VEGFR relative to VEGF125–136 [1]: 2.5 fold | Binding sites / fluorescent staining on A549 cells [2]: plasma membrane and perinuclear cytoplasm

Molecule: rhodamine [unconjugated rhodamine, reference compound]
Binding sites / fluorescent staining on A549 cells [2]: did not result significant levels of fluorescent staining

B3: QFRKRKKSRYKF (peptide)
peptide: QFRKRKKSRYKF
IC50 [3]: 323 ± 17 nM

B5: QFRKRKKSRYLS (peptide)
peptide: QFRKRKKSRYLS
IC50 [3]: 694 ± 29 nM

B7: IVFKRKRKKSRYLS (peptide)
peptide: IVFKRKRKKSRYLS
IC50 [3]: 637 ± 25 nM

B8: QKRKRKKSRYRK (peptide)
peptide: QKRKRKKSRYRK
IC50 [3]: 405 ± 20 nM

B9: QHKRKRKKSRIVL (peptide)
peptide: QHKRKRKKSRIVL
IC50 [3]: 424 ± 37 nM

B11: QKRKRKKSRYPLS (peptide)
peptide: QKRKRKKSRYPLS
IC50 [3]: 542 ± 16 nM

B14: QKRKRKKSRYKK (peptide)
peptide: QKRKRKKSRYKK
IC50 [3]: 571 ± 40 nM

B15: QKRKRKKSRYPK (peptide)
peptide: QKRKRKKSRYPK
IC50 [3]: 602 ± 19 nM

B16: QFRKRKKSRYKS (peptide)
peptide: QFRKRKKSRYKS
IC50 [3]: 665 ± 38 nM

B17: VEGF_(125–136) (peptide)
peptide: QKRKRKKSRYKS
notes: also called Control
IC50 [3]: 464 ± 12 nM

B21: QFRKRKKSRYPS (peptide)
peptide: QFRKRKKSRYPS
IC50 [3]: 4210 ± 76 nM

Next, values leading:

IC50 [3]: 315 ± 11 nM
B1: KKRKRKKSRKRK (peptide)
peptide: KKRKRKKSRKRK

IC50 [3]: 280 ± 13 nM
B2: QKRKRKKSRYKY (peptide)
peptide: QKRKRKKSRYKY

IC50 [3]: 273 ± 19 nM
B4: QFRKRKKSRYPK (peptide)
peptide: QFRKRKKSRYPK

IC50 [3]: 273 ± 33 nM
B6: KFRKRKKSRYIV (peptide)
peptide: KFRKRKKSRYIV

IC50 [3]: 252 ± 16 nM
B10: QFRKRKKSRYKH (peptide)
peptide: QFRKRKKSRYKH

IC50 [3]: 283 ± 9 nM
B12: RKRKRKKSRKKH (peptide)
peptide: RKRKRKKSRKKH

IC50 [3]: 80 ± 7 nM
B13: QKRKRKKSRKKH (peptide)
peptide: QKRKRKKSRKKH
notes: also called NO.15

IC50 [3]: 188 ± 25 nM
B18: FFRKRKKSRYKS (peptide)
peptide: FFRKRKKSRYKS

IC50 [3]: 92 ± 9 nM
B19: QFRKRKKSRWKS (peptide)
peptide: QFRKRKKSRWKS

IC50 [3]: 185 ± 14 nM
B20: RKRKRKKSRYIVLS (peptide)
peptide: RKRKRKKSRYIVLS
notes: also called NO.17
